Laboratory results reported in patent US5981483A, “Compositions comprising modulators of cytokines of the TGF-β superfamily” (Mount Sinai Hospital Corporation, priority 1997, dated 1999).

Columns and labels:
TGF-β1 = target: T1, TGF-β1 (Homo sapiens, UniProt P01137); test: BIAcore surface plasmon resonance, binding to immobilized TGF-β1; conditions: ligand TGF-β1
T1 construct: The mature processed cytokines produced from the members of the gene family show almost 100% amino acid identity between species; purchased Collaborative Research (Bedford, Mass.)
T1 sequence (P01137 279-390 limits assumed): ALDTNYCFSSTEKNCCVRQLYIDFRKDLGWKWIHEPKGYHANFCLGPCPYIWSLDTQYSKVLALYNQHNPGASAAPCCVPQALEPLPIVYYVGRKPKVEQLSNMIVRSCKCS
Procedure: (§1) In this system, a purified protein serving as the ligand is covalently coupled to a carboxymethylated dextran surface, and binding molecules (i.e. the analyte) are passed in a fluid phase across the surface. Binding of the analyte to ligand causes a change in reflected light which is directly proportional to mass bound, and is measured in arbitrary response units (R.U.). Analyte-ligand binding is observed as both increasing response with time during the injection of analyte, and the difference in the position of the baseline before and after injection.
(§2) Schuster, R. V. Swanson, L. A. Alex, R. B. Bourret, M. I. Simon, Nature 365, 343 (1993). 1000 R.U. equals approximately 1 ng/mm^2. The running buffer was 20 mM Hepes (pH 7.2), 150 mM NaCl and the flow rate for all sensorgrams was 3 μl/min.
Regeneration of the surface to remove bound analyte was done by injection of 10 μl of 20 mM NaOH. To cyclize TRH1 peptides, the material was reduced with 5 mM DTT then brought to a final concentration of 60 μM in 25 mM ammonium acetate (pH 8.5). After stirring in the dark for 30 min at 20° C. with 30 mM potassium ferricyanide, the peptide was mixed with AG3-X4A resin (BioRad), filtered, lyophilization and desalted on a 50×2.5 cm column of Biogel P2 (Pharmacia) developed in water, and further purified by reverse phase HPLC.
Injection volumes were 36 μl for FIG. 2, 4 and 5 and 45 μl for FIG. 3. […] Protein concentrations in each experiment were (FIGS. 2 and 3), 2, 5, 10, 20, 30, 40 μM; (FIG. 4), 0.21, 0.31, 0.41, 0.62, 0.82, 1.24 μM; (FIG. 5), 0.22, 0.29, 0.44, 0.59, 0.88 μM. R.U. for the immobilized cytokine in each experiment was 2850 R.U. for FIGS. 2 and 3; 7450 R.U. for FIG. 4, and 5300 R.U., for FIG. 5 respectively.
Data was analyzed using the BIA-evaluation software (Pharmacia Biosensor). The association rate constant, kass, was calculated by first plotting the change in response with time versus response (i.e. dR/dT vs R). When the slope of the line from this graph is plotted versus analyte concentration (i.e d(dR/dT)/dR vs C), kass is obtained from the slope of the line. The dissociation rate constant, kdiss, is obtained during the decrease in response with time after analyte injection is discontinued. Specifically, kdiss was obtained from the slope of the line in a plot of ln(Rt1 /Rtn) vs time. The affinity constants were calculated from KD =kdiss /kass. Variance for kass is standard error of the linear regression plot, and for kdiss values are the mean ± range of 3 or more independent injections.

Mv1Lu cells = test: 3H-Thymidine incorporation in Mv1Lu cells: proliferation / growth; type: cell-based, mink; conditions: absence of cytokines, FIG. 12; read-out: IC50, stimulated proliferation of Mv1Lu cells
Procedure: Mv1Lu cells were seeded at 20,000 cells/well in a 96 well plate containing 0.2% FCS in α-MEM and incubated with the indicated concentrations of proteins for 18 hr. The cells were then pulsed with 8 μCi/ml methyl-^3 H-thymidine (NEN, Boston, Mass.) for 6 hr. Cells were trypsinized, harvested onto filtermats and counted in a β-Counter. Percent neutralization is defined as incorporation in the presence of 12 pM TGF-β1 alone set at 0%, and incorporation without additions as 100%.

[1] = system: rat bone marrow stromal cells; test: Dexamethasone-treated rat bone marrow stromal cell cultures (proliferation, mineralization, TGF-β levels); type: cell-based
Procedure: The methods used in the studies described in this example and illustrated in FIGS. 16 and 17 are as follows. Femoral bones were removed under aseptic conditions from adult male Wistar rats (120 g), cleaned of adherent soft tissues, and washed extensively in antibiotics. The distal ends were removed and the marrow contents were flushed out with 10 ml of culture medium. The cells were dispersed by repeated passage through a 20 gauge needle and incubated in alpha-MEM supplemented with 15% fetal bovine serum, ascorbic acid (50 μg/ml), antibiotics (penicillin G 100 μg/ml, gentamicin 50 μg/ml, fungizone 0.3 μg/ml) and 10 mM β-glycerophosphate. […] Following 6 days of culture at 37° C. in a humidified atmosphere containing 5% CO2 in air, the cells were re-plated at a density of 1×10^2 cell/mm^2 in 96 multi-well plates (Falcon 3047), and grown for another 12-14 days. At the end of culture, the cells were fixed and stained for calcium with alizarin red-s for quantification of bone nodule area (reported as mineralized area (mm^2)/well). To assess mineralized tissue formation in the cultures morphometric measurements were carried out with the aid of a Bioquant IV system (Bioquant, Nashville, Tenn., U.S.A.) using a Leitz Orthoplan microscope. TGF-β in culture supernatants taken 4 days prior to scoring mineralization were measured with and without heat activation (80° C. for 10 min) using the Mink cells as the indicator cell line as described in FIG. 12.

BMP-4 = target: T2, BMP-4 (Homo sapiens, UniProt P12644); test: BIAcore surface plasmon resonance, binding to immobilized BMP-4; conditions: Table 2 (calculations repeated); ligand BMP-4; KD = kdiss/kass
T2 sequence (P12644 293-408): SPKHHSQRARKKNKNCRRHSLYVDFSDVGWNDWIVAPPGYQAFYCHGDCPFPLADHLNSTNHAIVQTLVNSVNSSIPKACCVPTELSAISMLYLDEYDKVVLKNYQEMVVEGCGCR
Procedure: as §1, §2
Regeneration of the surface to remove bound analyte was done by injection of 10 μl of 20 mM NaOH. To cyclize TRH1 peptides, the material was reduced with 5 mM DTT then brought to a final concentration of 60 μM in 25 mM ammonium acetate (pH 8.5). […]
Data was analyzed using the BIA-evaluation software (Pharmacia Biosensor). The association rate constant, kass, was calculated by first plotting the change in response with time versus response (i.e. dR/dT vs R). […] The affinity constants were calculated from KD =kdiss /kass. […]

[2] = Table 2 (calculations repeated)

Substance “Fetuin: Bovine fetal fetuin, glycoprotein obtained by ammonium sulfate fractionation of FCS and gel filtration (Sigma)” has a kass (TGF-β1; Table 1) of 670 ± 400 M⁻¹ s⁻¹, a kass (TGF-β1; Table 1, listed as fetuin) of 670 M⁻¹ s⁻¹ and a kdiss (TGF-β1; Table 1, listed as fetuin) of 0.16 s⁻¹. For the same substance, the kass (TGF-β1; [2]) was 870 ± 270 M⁻¹ s⁻¹, the kdiss (TGF-β1; [2]) was 0.0019 s⁻¹ and the Kd (TGF-β1; Table 2 (calculations repeated), KD = kdiss/kass, listed as b-Fetuin) was 2200 nM. For the same substance, the IC50 (Mv1Lu cells) was 8000 nM, the “BMP-2 induced osteogenesis in the cultures” value ([1]; data not shown) was “could be blocked” and the “deposition of calcium-containing matrix” value ([1]; dexamethasone-treated bone marrow cultures, latter two weeks, FIGS. 16 and 18) was “inhibited deposition of calcium-containing matrix”. For the same substance, the “cell number during the first week of culture (proliferative phase)” value ([1]; dexamethasone-treated, FIG. 15) was “stimulated an increase in cell number” and the Kd (BMP-4) was 120 nM.
